Measurements as given in publication PMC9482650, “Quantitative fragmentomics allow affinity mapping of interactomes” (Nature Communications, 2022).

Tests used:
Assay in all cases: holdup assay
Parameters in all cases: key: below the threshold = too weak to quantify, mostly under pKd 3.1 to 4
AHNAK1, Q09666 = molecular target: AHNAK1, Q09666
APBA1_1, Q02410 = molecular target: T1, APBA1_1, Q02410
T1 sequence (Q02410 651-752, limits assumed, looked up): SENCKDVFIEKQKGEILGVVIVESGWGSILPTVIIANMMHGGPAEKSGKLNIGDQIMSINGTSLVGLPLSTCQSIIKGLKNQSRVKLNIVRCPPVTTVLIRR

DLG4_3, P78352 = molecular target: DLG4_3, P78352
GRID2IP_1, A4D2P6 = molecular target: GRID2IP_1, A4D2P6
GRID2IP_2, A4D2P6 = molecular target: GRID2IP_2, A4D2P6
GRIP1_5, Q9Y3R0 = molecular target: T2, GRIP1_5, Q9Y3R0
T2 sequence (Q9Y3R0 568-668, limits assumed, looked up): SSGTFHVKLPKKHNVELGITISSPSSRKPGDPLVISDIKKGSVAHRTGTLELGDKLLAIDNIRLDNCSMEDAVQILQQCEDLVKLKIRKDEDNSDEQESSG

GRIP2_5, Q9C0E4 = molecular target: GRIP2_5, Q9C0E4
HTRA3, P83110 = molecular target: T3, HTRA3, P83110
T3 sequence (P83110 354-453, limits assumed, looked up): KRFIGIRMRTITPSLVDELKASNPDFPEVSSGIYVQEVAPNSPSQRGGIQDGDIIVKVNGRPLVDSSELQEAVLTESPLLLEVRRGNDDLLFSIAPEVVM

HTRA4, P83105 = molecular target: T4, HTRA4, P83105
T4 sequence (P83105 378-476, limits assumed, looked up): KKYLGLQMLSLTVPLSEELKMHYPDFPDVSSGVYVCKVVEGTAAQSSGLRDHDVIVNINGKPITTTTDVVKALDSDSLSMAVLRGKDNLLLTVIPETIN

IL16_4, Q14005 = molecular target: IL16_4, Q14005
Inadl_10, Q8NI35 = molecular target: Inadl_10, Q8NI35
LDB3, O75112 = molecular target: LDB3, O75112
LNX1_1, Q8TBB1 = molecular target: LNX1_1, Q8TBB1
LNX1_2, Q8TBB1 = molecular target: LNX1_2, Q8TBB1
LNX1_3, Q8TBB1 = molecular target: LNX1_3, Q8TBB1
MAGI2_3, Q86UL8 = molecular target: MAGI2_3, Q86UL8
MAGI3_2, Q5TCQ9 = molecular target: MAGI3_2, Q5TCQ9
MAST2, Q6P0Q8 = molecular target: MAST2, Q6P0Q8
MPP6, Q9NZW5 = molecular target: T5, MPP6, Q9NZW5
T5 sequence (Q9NZW5 125-219, limits assumed, looked up): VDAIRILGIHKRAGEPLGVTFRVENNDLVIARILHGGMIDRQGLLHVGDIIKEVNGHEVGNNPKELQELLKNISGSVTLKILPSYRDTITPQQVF

NHERF3_1, Q5T2W1 = molecular target: T6, NHERF3_1, Q5T2W1
T6 sequence (Q5T2W1 4-100, limits assumed, looked up): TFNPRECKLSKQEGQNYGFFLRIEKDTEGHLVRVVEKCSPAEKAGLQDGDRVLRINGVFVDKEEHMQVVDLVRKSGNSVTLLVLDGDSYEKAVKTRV

NHERF3_3, Q5T2W1 = molecular target: T7, NHERF3_3, Q5T2W1
T7 sequence (Q5T2W1 238-333, limits assumed, looked up): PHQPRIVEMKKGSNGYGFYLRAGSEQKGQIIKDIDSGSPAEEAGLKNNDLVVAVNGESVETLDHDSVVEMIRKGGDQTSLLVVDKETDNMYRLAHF

NHERF3_4, Q5T2W1 = molecular target: T8, NHERF3_4, Q5T2W1
T8 sequence (Q5T2W1 373-468, limits assumed, looked up): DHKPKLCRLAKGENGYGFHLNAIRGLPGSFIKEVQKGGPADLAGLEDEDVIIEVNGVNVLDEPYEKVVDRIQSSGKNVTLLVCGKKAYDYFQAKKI

NHERF4_4, Q86UT5 = molecular target: NHERF4_4, Q86UT5
RHPN1, Q8TCX5 = molecular target: T9, RHPN1, Q8TCX5
T9 sequence (Q8TCX5 508-602, limits assumed, looked up): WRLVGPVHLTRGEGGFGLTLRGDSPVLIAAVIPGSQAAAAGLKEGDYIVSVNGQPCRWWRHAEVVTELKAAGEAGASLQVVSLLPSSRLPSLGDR

SHANK1, Q9Y566 = molecular target: T10, SHANK1, Q9Y566
T10 sequence (Q9Y566 658-767, limits assumed, looked up): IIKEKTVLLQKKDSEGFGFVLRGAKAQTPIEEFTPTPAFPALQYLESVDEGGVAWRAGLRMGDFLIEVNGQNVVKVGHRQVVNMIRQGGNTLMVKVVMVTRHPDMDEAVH

SNTG1, Q9NSN8 = molecular target: T11, SNTG1, Q9NSN8
T11 sequence (Q9NSN8 52-150, limits assumed, looked up): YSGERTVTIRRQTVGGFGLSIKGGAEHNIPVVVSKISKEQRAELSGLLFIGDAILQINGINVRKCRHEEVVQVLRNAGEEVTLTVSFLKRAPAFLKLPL

SNX27, Q96L92 = molecular target: SNX27, Q96L92
[1] = plain residues with an end cap or a label only (N-terminal biotin on a linker: ado-ado)
[2] = plain residues with an end cap or a label only (N-terminal biotin on a linker: ahx)
[3] = plain residues with an end cap or a label only (N-terminal biotin on a linker: ttds)

Chain of DLG4_3, P78352 (P78352 306-403): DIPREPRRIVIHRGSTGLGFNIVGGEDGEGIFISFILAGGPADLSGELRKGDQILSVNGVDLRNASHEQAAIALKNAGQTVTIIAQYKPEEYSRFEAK
Chain of MAGI3_2, Q5TCQ9 (Q5TCQ9 398-503): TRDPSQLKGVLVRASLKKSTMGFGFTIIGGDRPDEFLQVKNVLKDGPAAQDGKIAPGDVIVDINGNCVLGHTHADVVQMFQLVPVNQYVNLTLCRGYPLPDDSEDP
Chain of GRID2IP_2, A4D2P6 (A4D2P6 272-370): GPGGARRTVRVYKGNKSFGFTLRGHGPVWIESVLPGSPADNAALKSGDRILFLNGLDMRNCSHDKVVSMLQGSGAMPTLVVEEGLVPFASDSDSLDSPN
Chain of IL16_4, Q14005 (Q14005 1229-1329): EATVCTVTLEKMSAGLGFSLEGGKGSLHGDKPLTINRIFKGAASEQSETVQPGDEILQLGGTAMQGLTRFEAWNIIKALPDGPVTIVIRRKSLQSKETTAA
Chain of GRID2IP_1, A4D2P6 (A4D2P6 1-87): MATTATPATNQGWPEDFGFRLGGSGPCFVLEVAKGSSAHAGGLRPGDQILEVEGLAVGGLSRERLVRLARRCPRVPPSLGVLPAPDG
Chain of MAGI2_3, Q86UL8 (Q86UL8 600-682): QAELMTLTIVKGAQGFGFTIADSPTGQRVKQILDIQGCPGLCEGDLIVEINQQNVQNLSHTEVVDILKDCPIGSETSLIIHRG
Chain of Inadl_10, Q8NI35 (Q8NI35 1673-1763): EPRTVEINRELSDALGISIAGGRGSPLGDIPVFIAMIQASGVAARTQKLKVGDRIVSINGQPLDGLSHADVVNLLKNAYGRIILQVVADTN
Chain of NHERF4_4, Q86UT5 (Q86UT5 464-550): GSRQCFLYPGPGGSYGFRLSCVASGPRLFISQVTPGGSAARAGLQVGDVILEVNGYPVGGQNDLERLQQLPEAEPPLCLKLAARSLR
Chain of AHNAK1, Q09666 (Q09666 4-100): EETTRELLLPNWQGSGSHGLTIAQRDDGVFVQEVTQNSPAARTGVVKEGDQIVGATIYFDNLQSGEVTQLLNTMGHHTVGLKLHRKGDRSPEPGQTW
Chain of LNX1_1, Q8TBB1 (Q8TBB1 261-371): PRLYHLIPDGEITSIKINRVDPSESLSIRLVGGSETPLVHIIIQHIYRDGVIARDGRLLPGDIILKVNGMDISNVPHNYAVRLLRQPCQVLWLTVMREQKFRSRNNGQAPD
Chain of GRIP2_5, Q9C0E4 (Q9C0E4 544-642): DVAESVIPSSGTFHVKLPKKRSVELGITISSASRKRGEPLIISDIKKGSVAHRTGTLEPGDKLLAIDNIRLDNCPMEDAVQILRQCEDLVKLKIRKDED
Chain of MAST2, Q6P0Q8 (Q6P0Q8 1099-1202): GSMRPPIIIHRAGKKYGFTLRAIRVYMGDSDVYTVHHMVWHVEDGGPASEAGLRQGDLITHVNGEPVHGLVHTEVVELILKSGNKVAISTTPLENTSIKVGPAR
Chain of LDB3, O75112 (O75112 1-94): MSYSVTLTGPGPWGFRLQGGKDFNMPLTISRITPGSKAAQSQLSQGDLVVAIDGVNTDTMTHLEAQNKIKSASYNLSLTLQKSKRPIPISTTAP
Chain of LNX1_2, Q8TBB1 (Q8TBB1 371-470): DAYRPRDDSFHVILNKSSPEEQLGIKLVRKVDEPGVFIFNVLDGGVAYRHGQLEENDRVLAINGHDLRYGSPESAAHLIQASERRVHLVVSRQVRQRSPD
Chain of LNX1_3, Q8TBB1 (Q8TBB1 500-596): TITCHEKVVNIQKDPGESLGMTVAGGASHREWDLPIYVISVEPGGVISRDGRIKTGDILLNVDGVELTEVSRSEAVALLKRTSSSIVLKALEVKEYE

With ELKAEDEVQI [DCHS2, Q6V1P9] the pKd (AHNAK1, Q09666; [1]) was “below the threshold”, the pKd (APBA1_1, Q02410; [1]) was “below the threshold” and the pKd (DLG4_3, P78352; [1]) was “below the threshold”. The pKd (GRID2IP_1, A4D2P6; [1]) was “below the threshold”, the pKd (GRID2IP_2, A4D2P6; [1]) was “below the threshold” and the pKd (GRIP1_5, Q9Y3R0; [1]) was “below the threshold”. For the same binder, the pKd (GRIP2_5, Q9C0E4; [1]) was “below the threshold”, the pKd (HTRA3, P83110; [1]) was “below the threshold” and the pKd (HTRA4, P83105; [1]) was “below the threshold”. The pKd (IL16_4, Q14005; [1]) was 3.6, the pKd (Inadl_10, Q8NI35; [1]) was “below the threshold” and the pKd (LDB3, O75112; [1]) was “below the threshold”. For the same binder, the pKd (LNX1_1, Q8TBB1; [1]) was “below the threshold”, the pKd (LNX1_2, Q8TBB1; [1]) was “below the threshold” and the pKd (LNX1_3, Q8TBB1; [1]) was “below the threshold”. For the same binder, the pKd (MAGI2_3, Q86UL8; [1]) was “below the threshold”, the pKd (MAGI3_2, Q5TCQ9; [1]) was “below the threshold” and the pKd (MAST2, Q6P0Q8; [1]) was “below the threshold”. The pKd (MPP6, Q9NZW5; [1]) was “below the threshold”, the pKd (NHERF3_1, Q5T2W1; [1]) was “below the threshold” and the pKd (NHERF3_3, Q5T2W1; [1]) was “below the threshold”. For the same binder, the pKd (NHERF3_4, Q5T2W1; [1]) was “below the threshold”, the pKd (NHERF4_4, Q86UT5; [1]) was “below the threshold” and the pKd (RHPN1, Q8TCX5; [1]) was “below the threshold”. For the same binder, the pKd (SHANK1, Q9Y566; [1]) was “below the threshold”, the pKd (SNTG1, Q9NSN8; [1]) was “below the threshold” and the pKd (SNX27, Q96L92; [1]) was “below the threshold”.

For SAPATLSSRA [PDLIM2, Q96JY6], the pKd (AHNAK1, Q09666; [2]) was “below the threshold”, the pKd (APBA1_1, Q02410; [2]) was “below the threshold” and the pKd (DLG4_3, P78352; [2]) was “below the threshold”. For the same binder, the pKd (GRID2IP_1, A4D2P6; [2]) was “below the threshold”, the pKd (GRID2IP_2, A4D2P6; [2]) was “below the threshold” and the pKd (GRIP1_5, Q9Y3R0; [2]) was “below the threshold”. The pKd (GRIP2_5, Q9C0E4; [2]) was “below the threshold”, the pKd (HTRA3, P83110; [2]) was “below the threshold” and the pKd (HTRA4, P83105; [2]) was “below the threshold”. The pKd (IL16_4, Q14005; [2]) was “below the threshold”, the pKd (Inadl_10, Q8NI35; [2]) was “below the threshold” and the pKd (LDB3, O75112; [2]) was “below the threshold”. For the same binder, the pKd (LNX1_1, Q8TBB1; [2]) was 3.67, the pKd (LNX1_2, Q8TBB1; [2]) was “below the threshold” and the pKd (LNX1_3, Q8TBB1; [2]) was “below the threshold”. The pKd (MAGI2_3, Q86UL8; [2]) was “below the threshold”, the pKd (MAGI3_2, Q5TCQ9; [2]) was “below the threshold” and the pKd (MAST2, Q6P0Q8; [2]) was “below the threshold”. For the same binder, the pKd (MPP6, Q9NZW5; [2]) was “below the threshold”, the pKd (NHERF3_1, Q5T2W1; [2]) was “below the threshold” and the pKd (NHERF3_3, Q5T2W1; [2]) was “below the threshold”. The pKd (NHERF3_4, Q5T2W1; [2]) was “below the threshold”, the pKd (NHERF4_4, Q86UT5; [2]) was “below the threshold” and the pKd (RHPN1, Q8TCX5; [2]) was “below the threshold”. For the same binder, the pKd (SHANK1, Q9Y566; [2]) was “below the threshold”, the pKd (SNTG1, Q9NSN8; [2]) was “below the threshold” and the pKd (SNX27, Q96L92; [2]) was “below the threshold”.

For ADENEQVSAV [RAPGEF6, Q8TEU7], the pKd (AHNAK1, Q09666; [2]) was “below the threshold”, the pKd (APBA1_1, Q02410; [2]) was “below the threshold” and the pKd (DLG4_3, P78352; [2]) was “below the threshold”. For the same binder, the pKd (GRID2IP_1, A4D2P6; [2]) was “below the threshold”, the pKd (GRID2IP_2, A4D2P6; [2]) was 4.19 and the pKd (GRIP1_5, Q9Y3R0; [2]) was “below the threshold”. The pKd (GRIP2_5, Q9C0E4; [2]) was “below the threshold”, the pKd (HTRA3, P83110; [2]) was “below the threshold” and the pKd (HTRA4, P83105; [2]) was “below the threshold”. The pKd (IL16_4, Q14005; [2]) was “below the threshold”, the pKd (Inadl_10, Q8NI35; [2]) was “below the threshold” and the pKd (LDB3, O75112; [2]) was “below the threshold”. The pKd (LNX1_1, Q8TBB1; [2]) was “below the threshold”, the pKd (LNX1_2, Q8TBB1; [2]) was “below the threshold” and the pKd (LNX1_3, Q8TBB1; [2]) was “below the threshold”. For the same binder, the pKd (MAGI2_3, Q86UL8; [2]) was 4.15, the pKd (MAGI3_2, Q5TCQ9; [2]) was 3.61 and the pKd (MAST2, Q6P0Q8; [2]) was 4.79. The pKd (MPP6, Q9NZW5; [2]) was “below the threshold”, the pKd (NHERF3_1, Q5T2W1; [2]) was 3.53 and the pKd (NHERF3_3, Q5T2W1; [2]) was “below the threshold”. For the same binder, the pKd (NHERF3_4, Q5T2W1; [2]) was “below the threshold”, the pKd (NHERF4_4, Q86UT5; [2]) was “below the threshold” and the pKd (RHPN1, Q8TCX5; [2]) was 4.42. The pKd (SHANK1, Q9Y566; [2]) was 3.88, the pKd (SNTG1, Q9NSN8; [2]) was 4.07 and the pKd (SNX27, Q96L92; [2]) was 5.07.

In the case of SGGKRKETLV [NET1, Q7Z628], the pKd (AHNAK1, Q09666; [3]) is reported as 3.56, the pKd (APBA1_1, Q02410; [3]) is reported as “below the threshold” and the pKd (DLG4_3, P78352; [3]) is reported as 4.92. For the same binder, the pKd (GRID2IP_1, A4D2P6; [3]) was “below the threshold”, the pKd (GRID2IP_2, A4D2P6; [3]) was 3.56 and the pKd (GRIP1_5, Q9Y3R0; [3]) was “below the threshold”. The pKd (GRIP2_5, Q9C0E4; [3]) was “below the threshold”, the pKd (HTRA3, P83110; [3]) was “below the threshold” and the pKd (HTRA4, P83105; [3]) was “below the threshold”. The pKd (IL16_4, Q14005; [3]) was “below the threshold”, the pKd (Inadl_10, Q8NI35; [3]) was “below the threshold” and the pKd (LDB3, O75112; [3]) was “below the threshold”. The pKd (LNX1_1, Q8TBB1; [3]) was “below the threshold”, the pKd (LNX1_2, Q8TBB1; [3]) was 3.62 and the pKd (LNX1_3, Q8TBB1; [3]) was “below the threshold”. It also gave a pKd (MAGI2_3, Q86UL8; [3]) of 4.5, a pKd (MAGI3_2, Q5TCQ9; [3]) of 5.92 and a pKd (MAST2, Q6P0Q8; [3]) of 4.49. For the same binder, the pKd (MPP6, Q9NZW5; [3]) was “below the threshold”, the pKd (NHERF3_1, Q5T2W1; [3]) was 4.35 and the pKd (NHERF3_3, Q5T2W1; [3]) was “below the threshold”. The pKd (NHERF3_4, Q5T2W1; [3]) was “below the threshold”, the pKd (NHERF4_4, Q86UT5; [3]) was “below the threshold” and the pKd (RHPN1, Q8TCX5; [3]) was 3.65. The pKd (SHANK1, Q9Y566; [3]) was “below the threshold”, the pKd (SNTG1, Q9NSN8; [3]) was 3.83 and the pKd (SNX27, Q96L92; [3]) was 4.33.
